The values that follow come from the DeepSol protein solubility set.

This data set in a line: soluble on expression in E. coli; label from the status in PepcDB or PDB records.
On to “MLIFKIFRRSEWDDFRRAGATAGAPVDLADGYIHFSTAAQVAETAAKHFTAESDLVLVAIDPDRAGPDLKWEPSRGEQLFPHLYRRLTLDDVVWDKSLPLGATGHIFPEGLWLEHHHHHH”, for which the “soluble on expression in E. coli” value is listed as “soluble”.

With “MLILMDPEETGKAPEIRALKSRAVNRVDSDLGRMEAVKRLKGVEDRRVGSEVFDELTLKTLYKLANSGYLAVLNGAVSTGKEANVFKGITDTDDFVAVKIYRVATSDFKKMQYYIQGDPRFKVRTTNRRQLVQAWVNKEFRNLKRALEAGVRVPEPVTARDNVLIMEFIGKDGVPAPTMRDAPPEDPEEALETIIEYMHRLYKGARLVHGDLSFFNILNHCGEPVIIDVSQAMVLDHPLAGELLERDIENIIRDFRRIGVSVSADYIRERITGK”, the “soluble on expression in E. coli” value was “soluble”.

Regarding “MLIMNIRKIDDYTYEIPREGDMIVHGIVYSTDKLFKNTVEDGSLNQVVNVAKLPGIVEASYAMPDIHLGYGFPIGGVAAFDYDEGIISPGGVGYDINCGVALLRTGMNYAQIKPRIKDITDYIFQEVPSGLTSRKGFPVNQNDLQEILTSGLKWAVSRGLATELDMINTEDNGSIESHGTHVSKQAMQRGLSQIGTLGAGNHFLEIQRVSDIFDEDVARKFGLYKDEVTVMIHTGSRGLGHQVATDYLRELRESRESIKTSDPELISIHVKSKIGENYLDAMKSAANFAFVNRQMAIYGVRKVFKKFFDVEPELVYSLAHNIAKVEDHIVEGKTKSLIVHRKGATRAFGPGKSSPPFEDTGHPVLIPGSMGTASYVLVGVKENLIKSFGTACHGSGRVLSRNQAIKKFSSIVDRELEEKDVYARPATKRVLYEEAPGSYKNVDEVVAAVEGAHLARSIVRMVPLAVVKGLEHHHHHH”, the “soluble on expression in E. coli” value is “not soluble”.

As to “MLKGIPKIIPPELLKVLCEMGHGDQLVIADGNFPAESIGKNAIVVRMDGHGGGEILKAILTVFPLDTYVDKPATLMEKVPGDTVATPIWDVYAGLIKEHDERGADAIGSLERFAFYEQAKNAYCVIASGESAQYANLILQKGVVFNAE”, the “soluble on expression in E. coli” value was “soluble”.

Regarding “MLKHKIINLIQEKREGSYWDFKAEYHKDKAELLHDIICLSNNLLNQEAYLILGVADNGHILGVAGDSNRKNQEELISFITGKKFAAGRHPKISLMTFEYEEKEIDVIIINPKGYVPYYLERAETDQKSKKNKTVNAGSIYTRVEDKNTPIDSTASPLDTEILWKMHFGLYPTPIKRLQNYLLTPEKWMQNSTGYFHSESPEYIVYKNEDIEEKENYFNLVSPFYAYNQINSNTLYSYYEFKYHSTVLYGCRCISLDSGIYTTPVPELGEINFNMHRDDTIYYRYFIEETMLYNIHLFMYKGDSMEEKFAMDKFLECVLVYKSDVEKELFENYILDNWDKVNQSINENNKRVFGTEHLSQLEKEDITKKVKTVKVLKDELENFRTLEHHHHHH”, the “soluble on expression in E. coli” value was “not soluble”.

Regarding “MLKKMGEAVARVARKVNETVESGSDTLDLAECKLVSFPIGIYKVLRNVSGQIHLITLANNELKSLTSKFMTTFSQLRELHLEGNFLHRLPSEVSALQHLKAIDLSRNQFQDFPEQLTALPALETINLEENEIVDVPVEKLAAMPALRSINLRFNPLNAEVRVIAPPLIKFDMLMSPEGARAPLP”, the “soluble on expression in E. coli” value was “not soluble”.

On to “MLKLQTLQALICIEEVGSLRAAAQLLHLSQPALSAAIQQLEDELKAPLLVRTKRGVSLTSFGQAFMKHARLIVTESRRAQEEIGQLRGRWEGHITFAASPAIALAALPLALASFAREFPDVTVNVRDGMYPAVSPQLRDGTLDFALTAAHKHDIDTDLEAQPLYVSDVVIVGQRQHPMANATRLAELQECRWAFSSAPRGPGAIIRNAFARYGLPEPKLGLVCESFLALPGVVAHSDLLTTMPRTLYERNAFKDQLCSIPLQDALPNPTIYVLRRHDLPVTPAAAGLIRWIQHHALQTGHHHHHH”, for which the “soluble on expression in E. coli” value is “soluble”.

“MLKNLRIRKFEPEEEYVYFTYSIKNDKREKSKELIREYTTLLQKAIDYLWNLTKIQVRKKNGNYKITLPKKREVYKPLREELEKINHLASHYVDKAINDAFSILKSWRKRAIKGRASIEKPRVKKAYVRIKTTLRKVVGESVRITVRPHEYITFSWSKSWFSRRVRELELGEPIIKEEKVYLPFRYKLPWATPVDFLAIDSNLYTLDAYDGEKFVTISLKQLYSLKYSMEVKRAKVQSFASKHTKRGRELMRKYSHRERNRVLDFVHKFVNTLLDLYPMTFFAVEKLNKESMFKDANDSLSRKISRTVWGSIHRVLKYKAPLYGSFVKEVNPRFTSRSCPRCGFVSRKVGKTFECERCGFKLDRQLNASLNIYLKMCGFPHIREIARVWVGVIPLMGRRGMNGFPRDFGEAQGLRIDIEYHEIPLEHHHHHH”: the “soluble on expression in E. coli” value is “soluble”.

For “MLKRPIHLSHDFLAEVVDKSSVVVDATMGNGNDTAFLAQLAKKVYAFDVQEQAIRKTSERLAQLGLSNAELILAGHEAVDQYVTEPVRAAIFNLGYLPSADKSIITLPNTTLQALSKLLTLLMVGGRIAIMVYYGHDGGSLEKDALLDFVKQLDQRKVSAMLYQPLNQVNTPPFLIMLEKLADF”, the “soluble on expression in E. coli” value is “not soluble”.

Turning to “MLKVEKFKKLKRFEVYYCLKNSFLEEVDIEMKYSCSITTIMSNGSASLLMNWEELTPGHCFTSYTTNPIAGDYGLNASAIDGHTEELVATHPAGTLENATQ”, the “soluble on expression in E. coli” value is “not soluble”.

For the sequence “MLKYQQIATEIETYIEEHQLQQGDKLPVLETLMAQFEVSKSTITKSLELLEQKGAIFQVRGSGIFVRKHKRKGYISLLSNQGFKKDLEDFNVTSKVIELDVRKPTPEAAENLNIGMDEDIYYVKRVRYINGQTLCYEESYYTKSIVTYLNNEIVSHSIFHYIREGLGLKIGFSDLFLHVGQLNEEEAEYLGLEAGLPKLYIESIFHLTNGQPFDYSKISYNYEQSQFVVQANSFLL”, the “soluble on expression in E. coli” value was “soluble”.

Turning to “MLLAYQSVIASITYLNPNIRFQLSRRCPSLKSAEKSAPLFINKLKLCTNSVVVNDISYEVDVYKTSEAVLLTYNTDLDVFGSIDFDLEIEEQNEILLDHRTYMAERMRLEREVLGLMTHSRNPNADLSRLMEINRLNKIRIQAREDRREVPNTPPEPPLVQVIEFAVMETDNYGDCLENEQLTYDRKLHDAVKYIMEKLFCGRKTPVHLSTLSINSFGILRIPLNMRFKIRHLKLVSGHANEIASKIRPIIEDSSFPLKSIIIKDPVEFDDPIYHSTQLLVLRHQLENRSPRFLNVKVLPNQLYVTTKILNWVQQARPVGTCWEFVGIDKNSKRQCVQKLMQIPGAMRALHTKLCWIILPANDDSEIHVTVAQDKINSKQFSIKLTVY”, the “soluble on expression in E. coli” value is given as “not soluble”.

In the case of “MLLEAPVYKEIFGAVTIHEVQKVIKMDTETEEVPIYTISNIPREKIYDLLGKMAVIVPMKNEKLHLVDGVLKAIPHKCPIIIVSNSKREGPNRYKLEVDLIRHFYNLTHSKIIMIHQKDPGLAKAFKEVGYTDILDENGMIRSGKGEGMLVGLLLAKAIGAEYVGFVDADNYIPGAVNEYVKDYAAGFLMSESEYTMVRLHWRHKPKVTKGTLYFKKWGRVSEITNHYLNLLVSEHTAFETTIMVTGNAGEHAMTMKLAEILPFSTGYSIEPYEIVYILERFGKWENVEEFKDVFDQGIEIFQIETLNPHFHEDKGKEHVKEMLLLSLATIYHSKLATDNLRKRILKDLRDHGILGENEEPPKPLVMRPIKEIPIKEWMDIVEGNSETLLRFEL”, the “soluble on expression in E. coli” value was “soluble”.

In the case of “MLLFPRRTNIAFFKTTGIFANFPLLGRTITTSPSFLTHKLSKEVTRASTSPPRPKRIVVAITGATGVALGIRLLQVLKELSVETHLVISKWGAATMKYETDWEPHDVAALATKTYSVRDVSACISSGSFQHDGMIVVPCSMKSLAAIRIGFTEDLITRAADVSIKENRKLLLVTRETPLSSIHLENMLSLCRAGVIIFPPVPAFYTRPKSLHDLLEQSVGRILDCFGIHADTFPRWEGIKSK”, the “soluble on expression in E. coli” value is on record as “soluble”.

On to “MLLKALCIINALIIGIINADILSDPNYRIFRDISAIRQVVTLARPVKNVSTTELPTYYETNYNISRRVKRQACASSCAPLEKATTPAYEGLIATENFYITYSTDGSGCPIADLTCVGGDMATLDYLDQNGDIITLGDGGDDYNILEAQLKCFAFGWGAATATEVIDGNSLNCNVLTDIPVTTTTSTTSSTTTTTATSTTESTSTSTDSTTTESTTESTTESTSTSTDSTTTESTTESTTESTSTSTDSTTTESTSTSTDSTTTESTTESTTESTSTSTDSTTTSLPALPLILLQPSLPQNQLRSLPAHPLNLLQPSLPQNQLRSLPALPLILLQPSRQALPLILLQPSLPQNQLRSLPAHPRILPRPSLPALPLILLQPSLPQNQLRSLLAHPLILPRLSQQQNQLRSLPAHPPILLQPSLPQNQLRSLPALPLILLQPSLPLNQLRSLPAHPLILLQPSQQQNQLRSLPAHPLILPRPSLPLNQLRSLPAHPLILLQPSLPQNQLRSQPAHPLILPRLSQQAHPLIPPRPSRRALRLILPQLKLLLLRLTLQRQCQELHAVHLEVSGVNGLLTLLALQHVDLVHNKSTDVFALLKLIVEHARMGADVKIQNCNVGVCYFPLDSCCAGYTATVSGTLHICGPQPTTTTPAPNDETCCPLDGIWGAWGEWSVCTGTTCGNCGGSRTRTRVCASDSFCSCNGDTTESENCRLLSSWSEWTTTGTCNQTACGTCQTLTYTRTCLKTNGCFCMGSATKTDYCSRKPCATGTACCNSLTAQTVDGVSICGPVEAAEDETDPVPCTTTTPACCVLGGVWSEWSSGDACNDTCGNCGVTTLSRVCLSQDYNCACSGSTTKQSECAPAPCPFPRTSCCGARKKVIVGRTFECSSADDSDAAPSTLCAVDCCPAAGGYWSEWTTGGSCPTTCGSCSTVTQKRVCMSPSTCPCQGVSSRSVNCGITVCYFPDDSCCAGYSATVSGTQHICGPQPNYTTPYAPYDPTCTDNCCPETGIWSDWTSTPNQCRDYCGSCGNQTRTRTCTSDADGCPCQGPTTITEPCGTGVCYFPRLSCCPGYTATVEGNQHICGPLTTAVADPDKLNTCGVSCCPSAGIWGEWVSVSGCNDTCGSCGQETRKRKCLSLQYGCACTGNATDTSVCASSVCLFPRTSCCTGFKKMVNITGRTFYCGPLPVVPAFNPEQTTCCDPEKTGLWNDWGAWTTCSATCGGCGTQTRSRTCASAPYGCPCTGDLTETQSCAKQVCTTGAQCCAGKFVATGYDGAQYCQDNTPEVCTGTWTEWATLEGAVCNDTCGNCGIIPTSRYCFPSGCQCSGAYTGTQACANSVCLFPRTSCCAPYKKKIVGKTFACA”, for which the “soluble on expression in E. coli” value is on record as “not soluble”.

With “MLLNMMCGRQLSAISLCLAVTFAPLFNAQADEPEVIPGDSPVAVSEQGEALPQAQATAIMAGIQPLPEGAAEKARTQIESQLPAGYKPVYLNQLQLLYAARDMQPMWENRDAVKAFQQQLAEVAIAGFQPQFNKWVELLTDPGVNGMARDVVLSDAMMGYLHFIANIPVKGTRWLYSSKPYALATPPLSVINQWQLALDKGQLPTFVAGLAPQHPQYAAMHESLLALLCDTKPWPQLTGKATLRPGQWSNDVPALREILQRTGMLDGGPKITLPGDDTPTDAVVSPSAVTVETAETKPMDKQTTSRSKPAPAVRAAYDNELVEAVKRFQAWQGLGADGAIGPATRDWLNVTPAQRAGVLALNIQRLRLLPTELSTGIMVNIPAYSLVYYQNGNQVLDSRVIVGRPDRKTPMMSSALNNVVVNPPWNVPPTLARKDILPKVRNDPGYLESHGYTVMRGWNSREAIDPWQVDWSTITASNLPFRFQQAPGPRNSLGRYKFNMPSSEAIYLHDTPNHNLFKRDTRALSSGCVRVNKASDLANMLLQDAGWNDKRISDALKQGDTRYVNIRQSIPVNLYYLTAFVGADGRTQYRTDIYNYDLPARSSSQIVSKAEQLIR”, the “soluble on expression in E. coli” value is given as “soluble”.

Regarding “MLLTGKLYKEEKQKFYDAQNGKCLICQRELNPDVQANHLDHDHELNGPKAGKVRGLLCNLCDAAEGQMKHKFNRSGLKGQGVDYLEWLENLLTYLKSDYTQNNIHPNFVGDKSKEFSRLGKEEMMAEMLQRGFEYNESDTKTQLIASFKKQLRKSLK”, the “soluble on expression in E. coli” value is recorded as “soluble”.

Take “MLLTPAKTTRTEDSANSTDDSSKSSNSFMRAIVSSLMVKPITSLTNTVTCRQSSHHNSSPSKITRYDLIKAAAENDLKRSKSQGREKSRRNSNRRNNEEIFVANTASEIQRTKSSI”: the “soluble on expression in E. coli” value is given as “soluble”.
